In publication PMC3622243 one finds Kd and percent reduction of bound B27 Flu NP heterotrimer tetramer over 1 hour data, which are given here for two substances.

Assay [1] has as its target HLA-B27 homodimer (B27 H chain dimer, β2m-free) (human). Put plainly: SPR. (Surface plasmon resonance follows binding to a sensor surface in real time, without labels.)
In assay [2] the target is LILRB2 on transduced Baf3 cells (UniProt Q8N423). Put plainly: flow cytometry on cells. Background: Flow cytometry measures light scatter and fluorescence of single cells or particles in a stream.

In general, Kd refers to the equilibrium constant for the complex coming apart. A lower Kd goes with a tighter complex.

Substance “LILRB2 incorporating the two immunoglobulin-like domains D1 and D2 (domain or fragment)” gave a dissociation constant (Kd) in assay [1] of 2.5 µM.

In turn, “HLA-B27 homodimer (B27 H chain dimer, β2m-free) (complex)” registered a percent reduction of bound B27 Flu NP heterotrimer tetramer over 1 hour in assay [2] of 43%.
